What was measured:
[1] = biological target: PD-L1 on cells (UniProt Q9NZQ7); experiment: flow cytometry, T24 R-WT cells incubated first with Atezolizumab Fab (50 nM); negative control [Cont.]
[2] = biological target: PD-L1 on cells (UniProt Q9NZQ7); experiment: flow cytometry, T24 R-WT cells incubated first with Atezolizumab Fab (50 nM); Isotype Control-647 gives 480 [Cont.]
[3] = biological target: EGFR (UniProt P00533); experiment: Fab KD, method not stated

Chain of UniProt Q9NZQ7 (Q9NZQ7 19-290 limits assumed): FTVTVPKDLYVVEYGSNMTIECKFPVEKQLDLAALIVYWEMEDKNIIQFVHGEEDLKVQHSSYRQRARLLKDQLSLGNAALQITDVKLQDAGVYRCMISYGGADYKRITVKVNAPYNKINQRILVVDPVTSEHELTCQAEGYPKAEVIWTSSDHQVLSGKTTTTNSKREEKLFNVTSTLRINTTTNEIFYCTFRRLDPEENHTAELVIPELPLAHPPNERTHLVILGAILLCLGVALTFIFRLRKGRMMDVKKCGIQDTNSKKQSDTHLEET
Chain of Necitumumab Fab (VH): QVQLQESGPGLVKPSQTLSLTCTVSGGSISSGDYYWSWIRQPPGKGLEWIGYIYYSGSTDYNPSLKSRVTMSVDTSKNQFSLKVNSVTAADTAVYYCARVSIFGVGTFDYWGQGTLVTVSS
Chain of Necitumumab Fab (VL): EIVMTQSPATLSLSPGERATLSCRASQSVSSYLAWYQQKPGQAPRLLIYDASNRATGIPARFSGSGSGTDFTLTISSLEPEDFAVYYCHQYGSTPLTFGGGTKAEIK

Row | Kd [3] [nM] | Molecule | further results
1 |  | Isotype Control-647 (antibody) | Median (APC) [1]: 480
2 |  | PD-L1 (D8T4X)-647 antibody | Median (APC) [2]: 8120
3 | 6.1 | Necitumumab Fab | 
4 | 113 | Matuzumab Fab (Fab, INN chains, looked up, V domains shown, Fab) VH: QVQLVQSGAEVKKPGASVKVSCKASGYTFTSHWMHWVRQAPGQGLEWIGEFNPSNGRTNYNEKFKSKATMTVDTSTNTAYMELSSLRSEDTAVYYCASRDYDYDGRYFDYWGQGTLVTVSS VL: DIQMTQSPSSLSASVGDRVTITCSASSSVTYMYWYQQKPGKAPKLLIYDTSNLASGVPSRFSGSGSGTDYTFTISSLQPEDIATYYCQQWSSHIFTFGQGTKVEIK | 

Reference: patent US20250250358A1
